From US20220040297A1 (Chugai, published 2022)

Legend:
[1] = target: T1, hCD3ε/g; assay: cell-ELISA on Ba/F3 cells expressing human CD3εγ, hybridoma culture supernatant (CM)
T1 construct: also called human CD3εγ on Ba/F3 cells

[2] = target: T2, Cy CD3ε/g; assay: cell-ELISA on Ba/F3 cells expressing cynomolgus monkey CD3εγ, hybridoma culture supernatant (CM)
T2 construct: also called cynomolgus monkey CD3εγ on Ba/F3 cells
T2 epsilon: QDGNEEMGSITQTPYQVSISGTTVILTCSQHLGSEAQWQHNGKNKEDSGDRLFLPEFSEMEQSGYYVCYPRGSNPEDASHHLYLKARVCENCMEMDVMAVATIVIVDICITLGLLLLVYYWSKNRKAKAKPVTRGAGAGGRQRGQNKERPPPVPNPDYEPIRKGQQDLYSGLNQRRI
T2 gamma: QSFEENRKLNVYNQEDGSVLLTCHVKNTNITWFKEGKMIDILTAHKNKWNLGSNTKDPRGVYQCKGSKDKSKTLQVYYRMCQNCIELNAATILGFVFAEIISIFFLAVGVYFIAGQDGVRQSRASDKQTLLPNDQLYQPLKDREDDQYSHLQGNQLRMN

[3] = target: T3, CD3ε homodimer protein (human, UniProt P07766 23-126, limits assumed); assay: SPR (Biacore T200, 25°C); CD3ε homodimer immobilized on CM4, one-arm antibody as analyte
T3 construct: also called human CD3ε homodimer protein; CD3e homodimer
T3 sequence (P07766 23-126 limits assumed): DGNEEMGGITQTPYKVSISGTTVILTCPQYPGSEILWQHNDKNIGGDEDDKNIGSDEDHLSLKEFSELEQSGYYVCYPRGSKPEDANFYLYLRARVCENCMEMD

[4] = target: T3, CD3ε homodimer protein; assay: SPR (Biacore T200, 25°C); CD3ε homodimer immobilized on CM4, one-arm antibody as analyte; first of two CE115HA340 lines (r6, 2.0E-08); the second line (r8) gives 2.7E-08

T1 sequence (epsilon, as listed by the source limits assumed, chain 1 of 2): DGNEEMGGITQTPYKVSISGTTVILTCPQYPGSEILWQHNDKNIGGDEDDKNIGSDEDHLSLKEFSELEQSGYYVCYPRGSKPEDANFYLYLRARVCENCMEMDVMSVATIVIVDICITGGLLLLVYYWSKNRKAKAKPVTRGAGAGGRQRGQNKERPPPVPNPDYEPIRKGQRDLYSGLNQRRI
T1 sequence (gamma, as listed by the source limits assumed, chain 2 of 2): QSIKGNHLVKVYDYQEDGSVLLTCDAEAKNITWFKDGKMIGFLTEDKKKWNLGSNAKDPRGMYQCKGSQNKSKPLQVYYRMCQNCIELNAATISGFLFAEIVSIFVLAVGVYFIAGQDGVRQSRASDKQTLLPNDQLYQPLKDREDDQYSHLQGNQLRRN

B1: CE#115 (antibody, V domains shown)
VH: EVQLVETGGSLVQPGKSLKLTCATSGFTFSNAWMHWVRQSPEKQLEWVAQIKAKSNNYATYYAESVKGRFTISRDDSKSNIYLQMNSLKEEDTAVYYCRYVHYGAYYGVDAWGQGTSVTVSS
VL: DVVMTQTPVSMSVSLGGQVSISCRSSQSLVHNNGNTYVSWYIQKPSQSPQLLIYKVSNRFSGISDRFSGSGSGTDFTLKISRVEPDDLGVYYCGQGTQDPYTFGAGTKLELK
notes: also called CE115, rat hybridoma culture supernatant
B1: binds [1]; binds [2].

B2: CE115HA340 / GLS3000 one-arm antibody (antibody, human IgG1, kappa, L234A L235A, N297A)
heavy: QVQLVESGGGLVQPGRSLRLSCAASGFTFSNAWMHWVRQAPGKGLEWVAQIKDKSNNYATYYAESVKGRFTISRDDSKNSIYLQMNSLKTEDTAVYYCRYVHYAAYYGVDAWGQGTTVTVSSASTKGPSVFPLAPSSKSTSGGTAALGCLVKDYFPEPVTVSWNSGALTSGVHTFPAVLQSSGLYSLSSVVTVPSSSLGTQTYICNVNHKPSNTKVDKKVEPKSCDKTHTCPPCPAPEAAGGPSVFLFPPKPKDTLMISRTPEVTCVVVDVSHEDPEVKFNWYVDGVEVHNAKTKPREEQYASTYRVVSVLTVLHQDWLNGKEYKCKVSNKALPAPIEKTISKAKGQPREPQVYTLPPSRCELTKNQVSLSCAVKGFYPSDIAVEWESNGQPENNYKTTPPVLDSDGSFFLVSKLTVDKSRWQQGNVFSCSVMHEALHNHYTQKSLSLSPDYKDDDDK
chain: EPKSSDKTHTCPPCPAPELLGGPSVFLFPPKPKDTLMISRTPEVTCVVVDVSHEDPEVKFNWYVDGVEVHNAKTKPREEQYNSTYRVVSVLTVLHQDWLNGKEYKCKVSNKALPAPIEKTISKAKGQPREPQVCTLPPSRDELTKNQVSLWCLVKGFYPSDIAVEWESNGQPENNYKTTPPVLDSDGSFFLYSKLTVDKSRWQQGNVFSCSVMHEALHNRYTQKSLSLSP
light: DIVMTQSPLSLPVTPGEPASISCRSSQSLVHSNRNTYLHWYQQKPGQAPRLLIYKVSNRFSGVPDRFSGSGSGTDFTLKISRVEAEDVGVYYCGQGTQVPYTFGQGTKLEIKRTVAAPSVFIFPPSDEQLKSGTASVVCLLNNFYPREAKVQWKVDNALQSGNSQESVTEQDSKDSTYSLSSTLTLSKADYEKHKVYACEVTHQGLSSPVTKSFNRGEC
notes: one-arm antibody
B2 showed a Kd [3] of 27 nM and a Kd [4] of 20 nM.
